These results are taken from paper PMC5101896, “Enhanced cellular uptake of lactosomes using cell-penetrating peptides” (Science and Technology of Advanced Materials, 2016).

Series [1] can be described thus: Particle size and polydispersity by dynamic light scattering (DLS). Format: physicochemical. Particulars: Zetasizer Nano ZSP, n = 3, mean ± standard deviation; for Diameter: lactosomes in saline. Here is the method:
(§1) A chloroform solution containing the (PSar25)3-block-PLLA35 (100 nmol, […]) with 4 mol% of TPP (Wako Pure Chemical, Osaka, Japan), 2 mol% of ICG-PLLA34, and 10 mol% maleimide-PSar56-PLLA30 was evaporated under reduced pressure to remove the solvent, forming a thin film on the surface of the glass test tube. Saline (Otsuka normal saline, Otsuka Pharmaceutical Factory, Tokushima, Japan) (50 μl) was added to the test tube, which was then placed at room temperature for 5 min. Then, 50 μl of the saline solution containing 50 nmol CPP and 10 nmol Tris(2-carboxyethyl)phosphine hydrochloride (Nacalai Tesque, Kyoto, Japan) was added to the solution (50 μl) in the test tube and stirred for 12 h at room temperature. In this procedure, lactosome formation and TPP encapsulation by the lactosome were expected. At the same time, maleimide-PSar56-PLLA30 in the lactosome is expected to react with CPP, which contains a cysteine residue at its C-terminus (Table 1). This lactosome mixture was diluted with 400 μl of saline, and passed through a 0.1 μm syringe filter (Membrane Solutions, Dallas, USA) to remove large aggregates. Low molecular weight molecules were excluded from the mixture using Amicon Ultra-0.5 (MWCO 50 kDa, Merck Millipore, Darmstadt, Germany). To analyze concentrations of CPP, TPP and ICG-PLLA34, absorption spectra of the lactosome complexes were measured using a BioSpec spectrometer (Shimadzu, Kyoto, Japan). The particle size, size distribution, polydispersity index (PDI), and zeta potential were measured by Zetasizer Nano ZSP (Malvern Instruments, Malvern, UK).
(§2) The particle sizes of lactosome complexes were measured by dynamic light scattering (DLS). The average particle sizes of the CPP-modified lactosomes were 36–49 nm, which were slightly larger than the unmodified lactosomes (34.2 nm) (Table 2, Figure 1(b)). The zeta potential value of CPP-modified lactosomes (e.g. Pep1-modified lactosome: 1.7 mV, EB1-modified lactosome: 1.6 mV) was higher than that of the unmodified lactosomes (–4.6 mV) (Table 2). The increase in the zeta potential seems to be due to positively charged CPPs.

Series [2] can be described thus: Zeta potential by laser Doppler electrophoresis. It is filed as physicochemical. Particulars: Zetasizer Nano ZSP, n = 3, mean ± standard deviation. Here is the method:
as §1, §2

For the next series, the system named is CHO cells. Briefly: Cellular uptake of ICG-labeled CPP-modified lactosomes. It is filed as cell-based, Chinese hamster. The settings on record: for Cellular uptake level (in words): 10 nmol lactosome complexes, ICG fluorescence intensity divided by cell viability; for Cellular localization (co-localization with LysoTracker Green): 2 μM LysoTracker Green, further 3 h incubation; for ICG fluorescence in cells by fluorescence microscopy, compared to lactosomes without CPP: after washing. Here is the method: CHO cells were cultured at 37°C under 5% CO2 in Ham’s F12 medium (Wako Pure Chemical) supplemented with 10% fetal bovine serum (FBS, Nichirei Biosciences, Tokyo Japan), 100 units ml^–1 penicillin (Gibco; Thermo Fisher Scientific, Waltham, Massachusetts, USA), and 100 μg ml^–1 streptomycin (Gibco; Thermo Fisher Scientific). The cells were seeded at a density of 2 × 10^4 cells/well in the 96-well plate, and incubated at 37°C under 5% CO2 overnight. The cells were then incubated at 37°C for 2 h with ICG-labeled lactosomes modified with CPPs (Tat, PTD4, DPV3, MPG^ΔNLS, R9MPG, Pep1, or EB1) dissolved in 200 μl T buffer. The lactosome solution was exchanged for Ham’s F12 medium before the fluorescence imaging. The cellular fluorescence images were obtained by fluorescence microscopy using an Olympus IX71 microscope (Olympus, Tokyo, Japan) with a 40 × objective lens and a U-DM-CY7–3 mirror unit.
LysoTracker Green (Thermo Fisher Scientific) was used for investigating cellular localization of CPP-modified lactosomes. After incubation of the cells with CPP-modified ICG-labeled lactosomes, the lactosome solution was exchanged with Ham’s F12 medium containing 2 μM LysoTracker Green. The cells were further incubated for 3 h. Then, the cell medium was replaced with Ham’s F12 medium, and fluorescence images were obtained.
To evaluate the cellular uptake of the lactosome complexes, the ICG fluorescence images were obtained using an IVIS spectrum system (Xenogen, Hopkinton, Massachusetts USA) with a filter set specific for ICG (excitation at 745 nm and emission at 840 ± 10 nm). The ICG fluorescence intensity was estimated from the photon counts of the images. Then, the cell medium was replaced with solution containing 10 μl of Cell Counting Kit-8 solution (Dojindo, Kumamoto, Japan) and 90 μl of Ham’s F12 medium, and the cells were incubated for an additional 1.5 h. After incubation, the cell viability was measured by absorbance at 450 nm using the microplate reader SunriseR (Tecan Japan, Kanagawa, Japan). Lactosome uptake levels were calculated by dividing ICG fluorescence intensity by cell viability of each well.

A further series concerns NCI-N87 cells. Briefly: Photoinduced cell killing (PDT treatment) with CPP/TPP-lactosomes, Cell Counting Kit-8. It is filed as cell-based, human. The settings on record: 1.5 h at 37°C in T buffer, irradiation 340–390 nm, 200 mW cm^–2, 100 s, then 24 h culture, n = 3. Here is the method: NCI-N87 cells were cultured at 37°C under 5% CO2 in RPMI1640 medium (Wako Pure Chemical) supplemented with 10% FBS, 100 units ml^–1 penicillin, and 100 μg ml^–1 streptomycin. NCI-N87 cells were seeded at a density of 4 × 10^4 cells/well in a 96-well plate, and incubated at 37°C for two days before treatment with the lactosome complex. CHO cells were cultured and seeded as described above. The effect of treatment with the TPP-loaded lactosomes and light on cell viability, which is related to PDT efficacy, was evaluated as follows: TPP-loaded lactosomes modified with CPPs (Pep1 or EB1) dissolved in 200 μl of T buffer (20 mM HEPES-KOH (pH 7.4), 115 mM NaCl, 5.4 mM KCl, 1.8 mM CaCl2, 0.8 mM MgCl2, and 13.8 mM glucose) were added to NCI-N87 cells (70% confluent) in the 96-well plate. The cells were incubated at 37°C for 1.5 h. After the lactosome solution was exchanged for T buffer, the cells were irradiated at 340–390 nm at 200 mW cm^–2 for 100 s. After irradiation, the cells were further incubated for 24 h at 37°C under 5% CO2 in the medium. Then, the cell medium was exchanged for the solution containing 10 μl of Cell Counting Kit-8 solution and 90 μl of RPMI1640 medium, and the cells were incubated at 37°C for 2 h. The cell viability was measured by the absorbance at 450 nm using a microplate reader SunriseR. […]

The next series concerns NCI-N87 tumor. Briefly: In vivo ICG fluorescence imaging of tumor-bearing mice. The arrangement: species or system mice (BALB/c nu/nu). The settings on record: tail vein injection, imaging 24 h after injection, IVIS; three mice. Here is the method: (§3) Six-week-old male nude mice (BALB/c nu/nu) were purchased from Charles River. Five weeks before the imaging, PANC-1 cells (1 × 10^7) suspended in 100 μl of 50% Matrigel Matrix (Corning Life Sciences, Corning, New York USA) in phosphate buffered saline was subcutaneously inoculated into the front left leg of mice. Two weeks after the first transplantation, NCI-N87 cells (4 × 10^6) were suspended in the Matrigel solution and subcutaneously inoculated into the front right leg of mice. Three weeks after the second transplantation, CPP/TPP/ICG-lactosomes were injected into the tumor-bearing mouse via the tail vein. After 24 h, ICG fluorescence images were taken using the IVIS spectrum system (excitation at 745 nm and emission at 840 ± 10 nm, field of view = 12.5 cm (width and height), f/stop = 2, binning = 4, and exposure time at 3 s). During the imaging process, the mice were anesthetized using 3.0% isoflurane gas in oxygen flow (0.5 l min^–1).

In the next series the test system is PANC-1 tumor. The description is as above. On the set-up: species or system mice (BALB/c nu/nu). The settings on record: tail vein injection, imaging 24 h after injection, IVIS; three mice. Here is the method:
as §3

No end group written: not given here.

For the substance “GALFLGFLGAAGSTMGAWSQPKSKRKV-C [MPG^ΔNLS, A3B-type lactosome modified with the CPP MPG^ΔNLS via maleimide-PSar56-PLLA30]”, in series [1], the Diameter is recorded as 49.1±0.5 nm and the “PDI (polydispersity index)” value worked out at 0.29±0.02. This substance also displayed a Zeta potential in series [2] of −2.9±0.6 mV.

Turning to “KETWWETWWTEWSQPKKKRKV-C [Pep1, A3B-type lactosome modified with the CPP Pep1 via maleimide-PSar56-PLLA30]”, in series [1], the Diameter worked out at 37.7±0.6 nm and the “PDI (polydispersity index)” value is recorded as 0.13±0.02. Also, the “Cellular uptake level relative to the EB1-modified lactosomes” value in the series on CHO cells (10 nmol lactosome complexes in T buffer, 2 h, 37°C, ICG fluorescence intensity (IVIS, ex 745 nm, em 840 nm) divided by cell viability (Cell Counting Kit-8), mean, n = 4) is recorded as 0.62. In addition, in the series on CHO cells (2 h, 37°C), the “Cellular uptake level (in words)” value was “highly internalized” and the “ICG fluorescence in cells by fluorescence microscopy, compared to lactosomes without CPP” value was “significantly strong ICG fluorescence”. For the same substance, in the series with CHO cells, the “Cellular localization (co-localization with LysoTracker Green)” value is “localized mainly in acidic organelles, including endosomes and lysosomes”. The substance also had a Zeta potential in series [2] of 1.7±0.1 mV.

With “KETWWETWWTEWSQPKKKRKV-C [Pep1/TPP-lactosomes, Pep1-modified lactosome loaded with the photosensitizer TPP]”, in the series with NCI-N87 cells, the “Killing of NCI-N87 cells compared to the experiment without CPP/TPP-lactosomes” value is listed as 67%.

For the substance “LIRLWSHLIHIWFQNRRLKWKKK-C (LIRLWSHLIHIWFQNRRLKWKKKC; also: C-terminal Cys linked via maleimide to PSar56-PLLA30 (lactosome)) [EB1, A3B-type lactosome modified with the CPP EB1 via maleimide-PSar56-PLLA30]”, in series [1], the Diameter amounted to 38.3±0.2 nm and the “PDI (polydispersity index)” value came out at 0.12±0.01. In the series with CHO cells (2 h, 37°C), the “Cellular uptake level (in words)” value is listed as “most abundantly internalized” and the “ICG fluorescence in cells by fluorescence microscopy, compared to lactosomes without CPP” value is listed as “significantly strong ICG fluorescence”. The “Cellular localization (co-localization with LysoTracker Green)” value in the series on CHO cells is “localized mainly in acidic organelles, including endosomes and lysosomes”. Also, the Zeta potential in series [2] was found to be 1.6±0.3 mV.

Consider “LIRLWSHLIHIWFQNRRLKWKKK-C [EB1/TPP-lactosomes, EB1-modified lactosome loaded with the photosensitizer TPP]”, for which the “Killing of NCI-N87 cells compared to the experiment without CPP/TPP-lactosomes” value with NCI-N87 cells stood at 89%.

On to “LIRLWSHLIHIWFQNRRLKWKKK-C [EB1/TPP/ICG-lactosomes, lactosome complex containing EB1, TPP, and ICG]”, for which the “Accumulation in NCI-N87 tumor (ICG fluorescence)” value with NCI-N87 tumor is “accumulated in NCI-N87 tumors and liver”. Besides, the “Accumulation in PANC-1 tumor (ICG fluorescence)” value in the series with PANC-1 tumor is given as “only slight ICG fluorescence was detected”.

For “RKKRRRESRKKRRRES-C (RKKRRRESRKKRRRESC; also: C-terminal Cys linked via maleimide to PSar56-PLLA30 (lactosome)) [DPV3, A3B-type lactosome modified with the CPP DPV3 via maleimide-PSar56-PLLA30]”, in series [1], the Diameter turned out to be 37.0±0.4 nm and the “PDI (polydispersity index)” value stood at 0.12±0.01. For the same substance, the Zeta potential in series [2] is given as −3.7±0.3 mV.

Regarding “RRRRRRRRRGALFLAFLAAALSLMG-C (RRRRRRRRRGALFLAFLAAALSLMGC; also: C-terminal Cys linked via maleimide to PSar56-PLLA30 (lactosome)) [R9MPG, A3B-type lactosome modified with the CPP R9MPG via maleimide-PSar56-PLLA30]”, in series [1], the Diameter worked out at 43.9±1.5 nm and the “PDI (polydispersity index)” value turned out to be 0.22±0.01. In series [2], this substance yielded a Zeta potential of −2.7±0.9 mV.

For the substance “YARAAARQARA-C [PTD4, A3B-type lactosome modified with the CPP PTD4 via maleimide-PSar56-PLLA30]”, in series [1], the Diameter amounted to 37.0±0.4 nm and the “PDI (polydispersity index)” value was 0.14±0.02. The Zeta potential in series [2] is recorded as −4.2±0.3 mV.

“YGRKKRRQRRR-C [Tat, A3B-type lactosome modified with the CPP Tat via maleimide-PSar56-PLLA30]”: in series [1], the Diameter was 36.2±0.3 nm and the “PDI (polydispersity index)” value stood at 0.10±0.01. For the same substance, the Zeta potential in series [2] is recorded as −3.6±0.1 mV.
